Data on 9 substances can be found in paper PMC5845931.

Assay [1] deals with PepTSt wild type, proton-dependent oligopeptide transporter from Streptococcus thermophilus (Streptococcus thermophilus) (UniProt Q5M4H8). Nature of the assay: MST; label-free (intrinsic tryptophan fluorescence of PepTSt); 125 nM PepTSt constant, peptide titrated up to the millimolar range; 22°C; pH 7.5, 100 mM Tris-HCl, 150 mM NaCl, 0.03% DDM.
Assay [2] shares this target. Nature of the assay: MST; label-free (intrinsic tryptophan fluorescence of PepTSt); 125 nM PepTSt constant, peptide titrated; 22°C; pH 4.5, 100 mM citrate, 150 mM NaCl, 0.03% DDM.
Assay [3] has the same target. Nature of the assay: MST; label-free (intrinsic tryptophan fluorescence of PepTSt); 125 nM PepTSt constant, peptide titrated up to the millimolar range; 22°C; pH 7.5, 100 mM HEPES, 150 mM NaCl, 0.03% DDM.
For assay [4] the target is unchanged. Kind of assay: MST; label-free (intrinsic tryptophan fluorescence of PepTSt); 125 nM PepTSt constant, peptide titrated up to the millimolar range; 22°C; pH 7.5, 100 mM NaPi, 150 mM NaCl, 0.03% DDM.
Assay [5] has the same target. Kind of assay: MST; label-free (intrinsic tryptophan fluorescence of PepTSt); 125 nM PepTSt constant, peptide titrated; 22°C; pH 5.5, 100 mM citrate, 150 mM NaCl, 0.03% DDM.
Assay [6] has the same target. Kind of assay: MST; label-free (intrinsic tryptophan fluorescence of PepTSt); 125 nM PepTSt constant, peptide titrated; 22°C; pH 5.0, 100 mM citrate, 150 mM NaCl, 0.03% DDM.

Broadly, the Kd is the concentration at which binding is half-saturated. The low end stands for higher affinity, the high end for lower affinity. Ala-Gln (peptide): the Kd in assay [1] was 6.82 mM.

For Asp-Glu (peptide), in assay [1], the Kd is > 50 mM.

With Ala-Leu (peptide), the Kd in assay [2] was > 50 mM; in assay [3], 0.56 mM.

With Ala-Asp (peptide), the Kd in assay [1] is > 100 mM.

In turn, Ala-Phe (peptide) returned a Kd in assay [1] of 0.95 mM.

In the case of Ala-Ala (peptide), the Kd in assay [1] amounted to 8.59 mM.

Regarding Leu-Ala (peptide), the Kd is > 100 mM in assay [2]; 13.3 mM in assay [3]; 9.56 mM in assay [4]; 23 mM in assay [5]; 13.8 mM in assay [1]; 47 mM in assay [6].

Leu-Leu (peptide) gave a Kd in assay [1] of 3.56 mM.

In turn, Phe-Ala (peptide) displayed a Kd in assay [1] of 10.9 mM.
